# Data published in publication PMC9522360, “Bidirectional sequestration between a bacterial hibernation factor and a glutamate metabolizing protein” (Proceedings of the National Academy of Sciences of the …, 2022).
# Biological target: the molecule itself
# Assay: SEC; size-exclusion chromatography of recombinant YwlG
protein,measurement,value
"recombinant YwlG (natural protein, S. aureus, C69 was oxidized in the crystals, YwlG of Staphylococcus aureus, 174 a.a., locus tag SAUSA300_2068; also called S. aureus YwlG; source: E. coli, purified (described in SI Appendix)) KDLTMLLDELKDMSFFNKGDICLIGCSTSEVIGEKIGTVGSMEVAETIFNALDVVSKETGVTFAFQGCEHINRAITIEKSQYNPLTMEEVSVVPDVHAGGSLATYAFQHMKDPIVVEHITVPCGIDIGQTLIGMHIKHVCVPVRTSVKQVGQAIVTIATSRPKKIGGERAKYQ",stoichiometry N,6
